# Source: the supplement of paper PMC10567573
# B1: SPSB4 (parent)
# chain: LDMDEGTLSFIVDGQYLGVAFRGL
# B2: KCNAB2 (parent)
# chain: IPPYSRASLKGYQWLKDKILSEEG
# Variants of: B1
# Experiment: protein stability index of a GFP-peptide fusion (GPS, HEK-293T) (PSI 1-6); higher = more stable
# Conditions: c terminus: a fixed tail appended
# 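Note: lentivirally expressed fusions sorted by FACS into six bins by GFP to DsRed ratio, PSI derived from sequencing read proportions per bin multiplied by bin number.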
row,Variant,protein stability index
1,A20H,1.89
2,A20R,2.47
3,A20I,2.13
4,A20S,2
5,A20K,2.11
6,A20T,2.03
7,A20N,1.68
8,A20G,2.38
9,A20Q,1.86
10,A20W,2.61
11,A20M,2.48
12,A20C,2.13
13,A20Y,2.4
14,A20L,2.51
15,A20V,3.1
16,A20P,1.55
17,A20E,1.88
18,A20D,1.63
19,V19E,1.85
20,V19T,2.1
21,V19H,2.07
22,V19M,2.32
23,V19P,2.43
24,V19C,2.33
25,V19Q,1.94
26,V19W,2.04

row,Variant,protein stability index
1,V19L,1.94
2,V19Y,2.49
3,V19A,1.97
4,V19S,1.66
5,V19D,1.99
6,V19K,2.1
7,V19G,2.18
8,V19N,1.98
9,V19F,2.31
10,V19I,2.77
11,V19R,2.04
12,L17E,1.79
13,L17F,3.76
14,L17W,2.72
15,L17P,2.51
16,L17K,1.87
17,L17G,1.47
18,L17M,1.67
19,L17N,1.51
20,L17H,1.86
21,L17D,2.29
22,L17Y,2.55
23,L17A,2.15
24,L17I,3.23
25,L17R,2.03
26,L17V,3.15

row,Variant,protein stability index
1,L17S,1.86
2,L17T,1.69
3,L17Q,2.09
4,Q15L,2.2
5,Q15H,3.32
6,Q15V,2.19
7,Q15S,2.35
8,Q15Y,2.62
9,Q15I,2.02
10,Q15M,1.98
11,Q15N,3.31
12,Q15T,3.63
13,Q15F,2.25
14,Q15K,2.5
15,L24Y,2.76
16,L24C,2.43
17,L24N,2.19
18,L24P,2.78
19,L24M,1.84
20,L24A,1.22
21,L24F,3.21
22,L24D,1.78
23,L24E,1.48
24,L24R,2.11
25,L24T,2.67
26,L24Q,2.6

row,Variant,protein stability index
1,L24S,1.88
2,L24K,1.65
3,L24W,2.54
4,L24H,3.29
5,L24I,3.11
6,L24G,1.69
7,L24V,3.18
8,G23A,1.31
9,G23C,1.86
10,G23S,3.28
11,G23F,1.96
12,G23K,1.97
13,G23D,1.84
14,G23M,2.84
15,G23E,2.42
16,G23T,2.5
17,G23Q,1.47
18,G23H,2.5
19,G23I,2.48
20,G23V,3.48
21,G23W,4
22,G23P,2.1
23,G23R,1.88
24,G23N,2.38
25,R22N,2.46
26,R22T,4.1

row,Variant,protein stability index
1,R22F,2.57
2,R22W,1.31
3,R22G,2.69
4,R22I,2.24
5,R22S,2.46
6,R22K,2.01
7,R22D,2.41
8,R22H,3.23
9,R22C,2.55
10,R22Y,3.56
11,R22P,2.25
12,R22A,3
13,R22M,1.99
14,R22E,2.05
15,R22Q,2.1
16,R22L,1.81
17,G18V,2.45
18,G18T,3.06
19,G18S,2.8
20,G18C,2.03
21,G18W,1.91
22,G18A,2.82
23,G18N,2.19
24,G18P,1.26
25,G18E,2.06
26,G18K,1.8

row,Variant,protein stability index
1,G18M,2.85
2,G18F,2.44
3,G18H,2.93
4,G18I,4.2
5,G18Q,1.42
6,G18R,2.38
7,G18D,2.55
8,G18L,2.31
9,G18Y,3.25
10,F21P,1.89
11,F21V,2.46
12,F21W,2.48
13,F21N,1.98
14,F21L,1.8
15,F21M,1.43
16,F21G,1.76
17,F21E,1.96
18,F21C,1.62
19,F21S,2.18
20,F21A,1.7
21,F21D,2.31
22,F21R,1.65
23,F21Q,1.98
24,F21T,2.04
25,F21H,1.72
26,F21K,2.39

row,Variant,protein stability index
1,F21Y,2.27
2,F21I,2.95
3,Y16C,2.12
4,Y16V,3.47
5,Y16Q,1.26
6,Y16P,2.27
7,Y16L,2.52
8,Y16K,1.93
9,Y16I,3.04
10,Y16G,1.78
11,Y16A,1.57
12,Y16W,1.9
13,Y16D,1.55
14,Y16E,2.56
15,Y16S,1.84
16,Y16M,2.81
17,Y16T,2.34
18,Y16F,3.17
19,Y16R,1.69
20,Y16N,1.59
21,Y16H,2.37

# Variants of: B2
# Experiment: as above
# Conditions: c terminus: a fixed tail appended
row,Variant,protein stability index
1,P3H,1.74
2,P3D,3.1
3,P3L,3.1
4,P3R,3.2
5,P3I,2.28
6,P3F,2.85
7,P3Q,2.54
8,P3T,2.06
9,P3S,2.62
10,P3C,1.51
11,P3K,2.75
12,P3Y,2.53
13,P3N,2.48
14,P3V,2.3
15,P3E,2.5
16,P3A,2.27
17,P3G,1.78
18,K10F,1.67
19,K10N,2.42
20,K10L,2.37
21,K10R,1.68
22,K10A,2.47
23,K10H,2.91

row,Variant,protein stability index
1,K10Q,3.27
2,K10P,3.76
3,K10E,3.57
4,K10M,2.4
5,K10C,1.72
6,K10G,2.88
7,K10I,2.2
8,K10D,3.49
9,L9W,2.22
10,L9F,2.61
11,L9T,3.14
12,L9M,2.24
13,L9Q,2.28
14,L9S,3.84
15,L9I,2.56
16,L9C,1.77
17,L9R,3.33
18,L9P,3.25
19,L9H,2.38
20,L9D,2.44
21,L9G,3.22
22,L9A,2.56
23,L9E,3.2

row,Variant,protein stability index
1,L9Y,2.4
2,L9K,2.53
3,L9N,3.15
4,I1G,2.19
5,I1C,2.43
6,I1S,3.37
7,I1M,2.19
8,I1T,2.99
9,I1F,2.15
10,I1A,2.6
11,I1H,2.59
12,I1P,2.82
13,I1E,3.38
14,I1D,3.51
15,I1L,2.08
16,I1N,2.5
17,I1V,2.77
18,I1K,2.33
19,R6E,3.93
20,R6V,1.7
21,R6Q,3.23
22,R6S,3.06
23,R6K,2.56

row,Variant,protein stability index
1,R6H,2.2
2,R6I,2.06
3,R6M,1.95
4,R6T,2.59
5,R6N,2.74
6,R6Y,1.6
7,R6P,2.67
8,R6A,2.82
9,R6L,2.45
10,R6F,2.16
11,R6G,2.53
12,R6C,1.94
13,P2K,2.02
14,P2N,1.86
15,P2F,2.2
16,P2M,1.37
17,P2T,1.62
18,P2H,1.92
19,P2S,2.66
20,P2R,2.62
21,P2E,2.87
22,P2Y,2.56
23,P2I,1.25

row,Variant,protein stability index
1,P2Q,2.92
2,P2L,2.04
3,P2V,3.44
4,P2D,1.7
5,P2A,1.52
6,P2C,1.88
7,S8E,1.31
8,S8T,2.24
9,S8A,2.6
10,S8Q,2.72
11,S8Y,1.9
12,S8I,1.58
13,S8D,2.53
14,S8P,2.64
15,S8N,2.53
16,S8H,2.97
17,S8F,2.21
18,S8G,1.96
19,A7D,3.15
20,A7T,2.23
21,A7L,3.23
22,A7M,1.8
23,A7S,3.32

row,Variant,protein stability index
1,A7C,1.59
2,A7Q,2.58
3,A7I,1.93
4,A7P,2.45
5,A7Y,1.46
6,A7V,2.41
7,A7F,2.23
8,A7G,2.58
9,A7E,2.86
10,A7N,2.22
11,A7K,1.9
12,A7R,1.95
13,Y4T,2.33
14,Y4D,4.41
15,Y4A,2.77
16,Y4G,2.76
17,Y4V,2.49
18,Y4N,3.1
19,Y4L,1.34
20,Y4E,4.16
21,Y4K,2.77
22,Y4C,1.6
23,Y4R,2.35

row,Variant,protein stability index
1,Y4S,2.92
2,Y4Q,2.96
3,Y4W,1.12
4,Y4F,2.14
5,Y4M,1.83
6,Y4I,2.29
7,S5P,3.12
8,S5R,1.82
9,S5E,3.09
10,S5A,2.15
11,S5K,2
12,S5Q,2.45
13,S5Y,2.79
14,S5F,3.12
15,S5T,2.42
16,S5N,2.21
17,S5D,2.8
18,S5H,2.63
19,S5G,3.42
